# Reference: the supplement of paper PMC10899765
# Assays:
# Settings in all cases: 20 nM; 72 h
# MCF10A [1] = test: percent viability (nuclei count relative to siNT); higher = more viable cells
# Method: (§1)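 After 72 h, cells were fixed and stained with Hoechst and anti-fibrillarin, and nucleoli per nucleus were counted with CellProfiler. Values are plate-adjusted percent effect for the one-nucleolus and 5+ nucleoli phenotypes, normalised to siNT (0%) and to the positive controls siNOL11 or siKIF11 (100%), as the mean of biological triplicates. Percent viability is the nuclei count relative to siNT.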
# MCF10A [2] = test: 5+ nucleoli phenotype percent effect (relative to siNT 0% and siKIF11 100%); higher = more cells with five or more nucleoli
# Method: as §1
# MCF10A [3] = test: one-nucleolus phenotype percent effect (relative to siNT 0% and siNOL11 100%); higher = more cells with one nucleolus (ribosome biogenesis inhibition)
# Method: as §1
Sequence,percent viability (MCF10A [1]) [%],5+ nucleoli phenotype percent effect (MCF10A [2]) [%],one-nucleolus phenotype percent effect (MCF10A [3]) [%]
AACCCAGUGGGCUAUGGAAAUG [hsa-miR-4482-5p],24.6,-41,59.8
UUGUGGAUCUCAAGGAUGUGCU [hsa-miR-4752],31.5,-34.7,43.7
GCACCCAGGCAAGGAUUCUG [hsa-miR-500b-3p],76.8,-15.3,11.8
AAUGGCUGUCCGUAGUAUGGUC [hsa-miR-889-5p],24.5,-28.6,43.3
CUUGAGUCGUGCCUUUCUGAAUG [hsa-miR-8081],95.5,-17.9,14
UUCCUUCUGUUGUCUGUGCAG [hsa-miR-6868-3p],28.1,-19.2,-3.76
CUGGACUGAGCCGUGCUACUGG [hsa-miR-1269a],52.7,-26.1,6.41
GUGACUGAUACCUUGGAGGCAU [hsa-miR-4439],56.4,-27.6,-2.03
AGUCAUUGGAGGGUUUGAGCAG [hsa-miR-616-3p],85.2,-20,10.7
UCCUGCCACCUCCUCCGCAG [hsa-miR-6727-3p],32.5,-26.4,19.2
CAAAAACCGCAAUUACUUUUGCA [hsa-miR-548z],36,-14.9,0.602
GGACCCACCCGGCCGGGAAUA [hsa-miR-1180-5p],75.2,38.4,-33.8
AACAGGUGACUGGUUAGACAA [hsa-miR-552],123,36.6,-33.6
CCAAAACUGCAGUUACUUUUGC [hsa-miR-548o-3p],99.8,27.5,-18
CCAAACCAGUCGUGCCUGUGG [hsa-miR-6715a-3p],40.8,-42,24.3
AUGCGAGGAUGCUGACAGUG [hsa-miR-4737],28.3,-33.6,35.7
UUGGCCAUGGGGCUGCGCGG [hsa-miR-3187-3p],30.1,12.9,-2.01
AUGGAGCUGGAACCAGAUCAGGC [hsa-miR-6874-5p],30.7,-35.8,41.9
GUUUGGACAUAGUGUGGCUGG [hsa-miR-7850-5p],115,49.1,-32.7
UGGAAUGUAAGGAAGUGUGUGG [hsa-miR-206],48.8,-23.7,48.4
UAAAACCCACAAUUAUGUUUGU [hsa-miR-548as-3p],149,-6.8,25.3
AGAUCGACCGUGUUAUAUUCGC [hsa-miR-369-5p],53,3.93,-0.708
CGGCGCCCGUGUCUCCUCCAG [hsa-miR-6789-3p],59.9,32.6,-9.93
GAGCUUGGUCUGUAGCGGUU [hsa-miR-4453],9.97,-29.1,33.6

Sequence,percent viability (MCF10A [1]) [%],5+ nucleoli phenotype percent effect (MCF10A [2]) [%],one-nucleolus phenotype percent effect (MCF10A [3]) [%]
GAAAACGACAAUGACUUUUGCA [hsa-miR-548ad],129,40.5,-29.2
GUGUUAAUUAAACCUCUAUUUAC [hsa-miR-2053],91.5,3.14,-1.87
UUUCUUCUUAGACAUGGCAGCU [hsa-miR-4659b-3p],31.6,-29.4,-5.32
UGGGAGGGCGUGGAUGAUGGUG [hsa-miR-6785-5p],51.8,15,-4.23
UGAAGCCAGCUCUGGUCUGGGC [hsa-miR-4786-3p],29,-24,25
UCAACAAAAUCACUGAUGCUGGA [hsa-miR-3065-5p],117,38.2,-30.5
AGUUAGGAUUAGGUCGUGGAA [hsa-miR-1258],37.3,-19.1,6.84
CGGGGCCAGAGCAGAGAGC [hsa-miR-6845-5p],53.6,11.6,9.59
AGCAGACUUGACCUACAAUUA [hsa-miR-4771],53.6,3.81,-9.9
UGGCCCGGCGACGUCUCACGGUC [hsa-miR-4745-3p],58.7,45,-29.1
UGGUGGGUGGGGAGGAGAAGUGC [hsa-miR-6769b-5p],18.8,-22.4,23.2
UGCAUCAGGCCAGAAGACAUGAG [hsa-miR-4711-5p],23.9,-36.8,12.6
AAGCUCAGGUUUGAGAACUGCUGA [hsa-miR-6854-5p],57.3,-24.5,18.3
GUAGGGGCGUCCCGGGCGCGCGGG [hsa-miR-6789-5p],77.1,28.1,-25.6
CGCAGGGGCCGGGUGCUCACCG [hsa-miR-1909-3p],26.7,13.4,20.6
CUUCCUCGUCUGUCUGCCCC [hsa-miR-1238-3p],74.5,-4.82,13.2
UGUGUGUGUAGAGGAAGAAGGGA [hsa-miR-6867-5p],13.1,-22.4,64.8
UUGGGACAUACUUAUGCUAAA [hsa-miR-1302],46.9,-1.97,-3.28
UUCUGGAUAACAUGCUGAAGCU [hsa-miR-5706],176,51.3,-32.6
UUUCUAUUUCUCAGUGGGGCUC [hsa-miR-4482-3p],21.2,0.737,31.6
UCCCCUUCUGCAGGCCUGCUGG [hsa-miR-3127-3p],144,34.9,-24.5
UGCACAUGGCAACCUAGCUCCCA [hsa-miR-5589-3p],45.2,-1.16,6.29
UGGGGUAAGGAUAGGAGGGUCA [hsa-miR-6881-5p],24.8,-3.46,4.74
GUUCCUGCUGAACUGAGCCAG [hsa-miR-3074-5p],42.2,-17.7,-7.07
